# According to paper PMC4239648:
# Molecular target: HsiC2Δ1–30, bacterial two-hybrid fusion (P. aeruginosa PAO1)
# Assay: two-hybrid; bacterial two-hybrid (BTH): T25 and T18 fusions of B. pertussis adenylate cyclase co-transformed in E. coli DHM1; spots on MacConkey maltose and X-gal LB agar, 30 °C, at least 48 h; β-galactosidase activity in Miller units
substance,measurement,value
"ClpV2, full length, bacterial two-hybrid fusion (enzyme)",fold reduction of binding against full-length HsiC2,10 fold
